± gives the standard deviation of the averaged measurements.
Tested on: ATP
Assay: switch fluorescence ratio, 500 uM ATP over buffer (Cy3 cluster intensity, sum of 5 cycles each) (fold (ratio)); higher = stronger signal-on switching upon ATP binding; sequences stand for … in TCGTCGGCAGCGTCAGATGTGTATAAGAGACAGTTTTTTTTTTTTTTTTTTTTTTTTT…TC
Conditions: aptamer strand: ATP DNA aptamer (quencher-CACCTGGGGGAGTATTGCGGAGGAAGG + anchor), 100 nM annealed; ATP concentration: 500 uM
In short: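 Clusters carrying Cy3-labelled switching strands on a modified Illumina MiSeq flow-cell were annealed to 100 nM quencher-labelled ATP aptamer and imaged in selection buffer. They were imaged again after 15 min with 500 uM ATP at 22 °C, over five buffer/ATP cycles with NaOH stripping and re-annealing in between. For each cluster, the fluorescence ratio is the summed Cy3 intensity of the target cycles divided by that of the buffer cycles, averaged per switch-domain sequence. Clusters outside 100-1000 RFU were left out.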
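Also: ATP exposure 15 min at 22 °C before imaging.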

Row | Sequence | switch fluorescence ratio
1 | ACGTCAAAGG | 1.37 ± 0.51
2 | CGCGGTCATA | 1.023 ± 0.01
3 | TACTCGGCTC | 1.66 ± 0.11
4 | TGCGAGGGCA | 1.02 ± 0.0087
5 | GGGAACGGGT | 1 ± 0.035
6 | GTTTTGGTCG | 0.9894 ± 0.007
7 | CTGATGGGG | 0.986 ± 0.021
8 | AGTAGCGGGA | 1.02 ± 0.024
9 | TACTCATTGC | 1.03 ± 0.067
10 | CGAGAATGTT | 1.07 ± 0.1
11 | TCGCGCCTTG | 1.01 ± 0.021
12 | TATGGGTCTC | 0.973 ± 0.049
13 | GGGGATGAAG | 0.994 ± 0.014
14 | TTTCCCCATT | 1.012 ± 0.0066
15 | GGGAACGAGG | 1.02 ± 0.019
16 | TATGCCCAGC | 1 ± 0.029
17 | AAACAGTTGT | 1.01 ± 0.055
18 | CGTGTTGGTC | 1 ± 0.012
19 | GCTGTTTTCA | 0.984 ± 0.048
20 | TAAATATTTT | 1.08 ± 0.14
21 | ATGGGCTAGG | 0.9702 ± 0.0058
22 | ATTAATTAGA | 0.975 ± 0.041
23 | ATAGTGGAGG | 1.01 ± 0.025

Row | Sequence | switch fluorescence ratio
24 | GAGTTAATTT | 0.989 ± 0.017
25 | AAAGGAGGGA | 1.01 ± 0.035
26 | TAAATGGGCT | 1.04 ± 0.025
27 | CGATGTTGAG | 1.002 ± 0.01
28 | ATTTTGGGGG | 0.988 ± 0.021
29 | GTTAAAGGGC | 1.03 ± 0.034
30 | TGGATTTTTT | 0.996 ± 0.036
31 | AGGTATGTTT | 1 ± 0.068
32 | CACTAGCGGA | 1.05 ± 0.023
33 | TGGGGGCACA | 1.0343 ± 0.00026
34 | TTAATCTGCG | 1.01 ± 0.032
35 | CCTAACGCAG | 2.32 ± 0.43
36 | GTCGACAGCG | 1.02 ± 0.035
37 | GGTTTATTTT | 0.9946 ± 0.0013
38 | TGGGGCCTGT | 0.978 ± 0.023
39 | CGTTAAGTTA | 0.974 ± 0.012
40 | ATGGGGTATG | 0.987 ± 0.024
41 | CTTGACGCCG | 1.09 ± 0.13
42 | AAGAGCCAAA | 0.9735 ± 0.0097
43 | TTTTTGGCTC | 1.01 ± 0.019
44 | TTTGGTAATG | 1.01 ± 0.021
45 | TGGAGCTGGG | 1.31 ± 0.5
46 | TTGAGATCCA | 0.9929 ± 0.0085

Row | Sequence | switch fluorescence ratio
47 | GTGGTCGTGC | 0.9761 ± 0.0041
48 | TTAGTTATTA | 1.017 ± 0.0041
49 | AAAATGATAT | 0.99 ± 0.02
50 | GTAATGAGGT | 1.01 ± 0.024
51 | TATGGTCGC | 1.03 ± 0.026
52 | ACAGGTTTGA | 1.03 ± 0.021
53 | ATAATCTCTA | 0.9907 ± 0.0094
54 | GCTTGGGAAC | 0.993 ± 0.028
55 | TTAGCATATA | 2.42 ± 1.9
56 | TAGAGATTAG | 1 ± 0.038
57 | AGTTAACTGT | 0.996 ± 0.032
58 | AAACAGCGTG | 1.01 ± 0.017
59 | GAAGGGGGGA | 0.985 ± 0.034
60 | GGGCGGGGCT | 0.994 ± 0.016
61 | GGAATGTGCA | 0.987 ± 0.023
62 | TATGTGGGGA | 1.02 ± 0.027
63 | TTCCTTTAAA | 1.07 ± 0.065
64 | GTGAATAGTT | 0.995 ± 0.032
65 | CGCGGGTTTT | 1.0416 ± 0.00069
66 | CGGAGGATGC | 1.31 ± 0.019
67 | TGGGGGGCGG | 1.02 ± 0.03
68 | GCTAGTCTCA | 1.01 ± 0.028
69 | CGAAAATGCC | 1.02 ± 0.023

Row | Sequence | switch fluorescence ratio
70 | TGCAACGTTT | 0.971 ± 0.024
71 | ATCAGGTGCG | 1.2924 ± 0.00069
72 | AGTATGTGAA | 0.97601 ± 0.00029
73 | TCTGAAATGG | 1.04 ± 0.047
74 | ATTAGGATAG | 1 ± 0.054
75 | AAAAATTGTG | 1.01 ± 0.046
76 | GGGGCCTTTA | 0.9592 ± 0.0049
77 | CGGGTAAGTT | 1.09 ± 0.2
78 | AATGGTTAAG | 1 ± 0.054
79 | AAATAAAACT | 1.1 ± 0.19
80 | AACTCCACGA | 1.26 ± 0.32
81 | TGGTAGATGG | 1 ± 0.022
82 | GAGAAAAAGG | 0.976 ± 0.013
83 | AAGGCTTAAT | 1.006 ± 0.0063
84 | GAAGGGACGA | 0.993 ± 0.04
85 | AGAAAAGGGT | 0.997 ± 0.03
86 | TTGAAATGGT | 0.987 ± 0.018
87 | CAGAGTAGGT | 1.02 ± 0.048
88 | CATAATATTG | 0.991 ± 0.011
89 | TGACCACCAG | 0.993 ± 0.019
90 | TATAAAGAGA | 0.9978 ± 0.0057
91 | AGGACTTTAA | 1.0405 ± 0.0001
92 | ATCTGTCAGT | 0.9807 ± 0.0092

Row | Sequence | switch fluorescence ratio
93 | GGGGTCGTTG | 0.995 ± 0.017
94 | TCGTGTAGGG | 0.984 ± 0.014
95 | AGACGAGGTA | 1.03 ± 0.05
96 | ATTCAATTGT | 0.974 ± 0.013
97 | TCGATTGGCG | 1.07 ± 0.1
98 | TCTTCTACCT | 1.2 ± 0.022
99 | GGGTCTGTGG | 0.9812 ± 0.0062
100 | TTGCTTTGTC | 0.994 ± 0.013
101 | AATGGGTTGT | 1.02 ± 0.032
102 | TGACGGTGGC | 1.02 ± 0.017
103 | AGTAGGGAAA | 1 ± 0.033
104 | ATAGGGTTGG | 0.996 ± 0.049
105 | TTTCTCGGAG | 1.08 ± 0.084
106 | TTTATATTCG | 0.989 ± 0.033
107 | GGAAAATACA | 0.985 ± 0.025
108 | GCCGCTACCT | 1.11 ± 0.079
109 | AAACGCGACT | 1.31 ± 0.2
110 | TCAATGGGCT | 0.9899 ± 0.0092
111 | GGGGCGACGT | 0.977 ± 0.023
112 | CTGTAAGGTC | 1.01 ± 0.019
113 | TTCGTTTGTT | 1.34 ± 0.56
114 | TTTTGATATC | 0.997 ± 0.012
115 | CCATGGATCA | 0.9992 ± 0.0091

Row | Sequence | switch fluorescence ratio
116 | GCTTTGTGAT | 1.01 ± 0.066
117 | TTGCAAGAAT | 1.023 ± 0.0021
118 | ATAGAATGGG | 0.9928 ± 0.0072
119 | ATGTGAGATA | 1.02 ± 0.015
120 | AGGGACGCTT | 1.14 ± 0.12
121 | ATGCTTCGTG | 0.975 ± 0.027
122 | GCGTGCATTA | 0.984 ± 0.034
123 | AGTATTCAAA | 1 ± 0.018
124 | ATTCTTAATG | 1.01 ± 0.021
125 | GTCCTCGCAT | 4.8 ± 0.54
126 | GCGTTTTAGC | 0.995 ± 0.041
127 | GGGGTATTCT | 1.01 ± 0.013
128 | ACCTTGATGG | 0.976 ± 0.077
129 | TTCGGGGGAC | 1.13 ± 0.14
130 | CGATTTGGCA | 1.01 ± 0.0076
131 | GGCAATGAAA | 0.999 ± 0.019
132 | ATAGTTTGAG | 1.01 ± 0.018
133 | GGGTGTGAGA | 1.04 ± 0.03
134 | AAGAGAGTTT | 0.9837 ± 0.00066
135 | CTGGGGAGTG | 0.977 ± 0.029
136 | GGGTTGTGCT | 0.953 ± 0.015
137 | TTTGCAAAGT | 1.005 ± 0.0069
138 | TGGGGGACCT | 1.09 ± 0.1

Row | Sequence | switch fluorescence ratio
139 | GATATCCCGG | 0.987 ± 0.022
140 | CGGTCGGGTA | 1.01 ± 0.031
141 | TGGGGAATGG | 1 ± 0.05
142 | AAATCATATG | 1.08 ± 0.087
143 | TAGACAGCCA | 1.02 ± 0.041
144 | AAATACTTGG | 1.04 ± 0.055
145 | TTAATGGGTT | 1.09 ± 0.14
146 | GGGAAGAGTT | 0.994 ± 0.012
147 | TCATCGGCAT | 4.07 ± 1.3
148 | CGCTGATGCT | 1.0852 ± 0.00031
149 | TGGGGTGGGG | 1.05 ± 0.09
150 | CATGCTAGAG | 0.99 ± 0.025
151 | GCACCCCGCC | 1.33 ± 0.036
152 | AATGGTTTTG | 0.9921 ± 0.0034
153 | ATTCCTCTAG | 1.318 ± 0.0041
154 | TTGTCGCTGT | 1.14 ± 0.19
155 | GATTGAGTTT | 0.9866 ± 0.0089
156 | AGTGGAGGGG | 0.969 ± 0.029
157 | TGGGAGTCGC | 0.97 ± 0.027

From the supplement of paper PMC10126150
